Measurements from publication PMC7982547 (The Journal of Biological Chemistry, 2004).

Columns and labels:
crystal structure [1] = target: the molecule itself; assay: crystal structure
crystal structure [2] = target: the molecule itself; assay: crystal structure; remark: listed apart in the source

B1: shortened HR1 region of the MHV A59 spike protein, residues 968-1017 (domain or fragment)
chain: ENQKMIASAFNNALGAIQDGFDATNSALGKIQSVVNANAEALNNLLNQLS
Q: Does B1 bind (crystal structure [1])?
A: binds

B2: nMHV 2-Helix (new construct of the MHV fusion core: shortened HR1, 22-residue linker, HR2) (domain or fragment)
chain: ENQKMIASAFNNALGAIQDGFDATNSALGKIQSVVNANAEALNNLLNQLSLVPRGSGGSGGSGGLEVLFQGPDLSLDFEKLNVTLLDLTYEMNRIQDAIKKLNESYINLKE
Q: Does B2 bind (crystal structure [1])?
A: binds

B3: HR1 (heptad repeat 1) region of the MHV A59 spike protein, residues 968-1027 (domain or fragment)
chain: ENQKMIASAFNNALGAIQDGFDATNSALGKIQSVVNANAEALNNLLNQLSNRFGAISASL
Q: For B3, which “stoichiometry N” value (crystal structure [2]) is on record?
A: 3
